Measured values as given in patent publication US11957762B2, “Immune tolerant and non-immune tolerant elastin-like recombinant peptides and methods of use” (University of Utah Research Foundation, priority 2015, dated 2024).

Columns and labels:
[1] = Thermally-induced reversible phase transition (turbidity OD350 vs temperature); type: physicochemical
Text: Characterization of thermally-induced, reversible, inverse phase transition of iTEPs and the iTEPB-iTEPA-pOVA fusion. The phase transitions of iTEP or iTEP fusions were characterized by turbidity changes of sample solutions as a function of temperature. Specifically, the optical density at 350 nm (OD350) of a sample solution was monitored using an UV-visible spectrophotometer equipped with a multi-cell thermoelectric temperature controller (Cary 300, Varian Instruments, Walnut Creek, CA) while the solution was heated from 20° C. to 80° C. and then cooled to 20° C. at a rate of 1° C./min. The maximum first derivative of the turbidity curve of a sample was identified. The transition temperature (Tt) of the sample is the temperature that corresponds to the maximum derivative.

[2] = Quantification of free sulfhydryl groups (Ellman's method); type: physicochemical
Method: Quantification of free sulfhydryl groups of RED-NP after reducing treatments. Twenty mg of RED-NP were dissolved in 2 mL of H2O and treated with 1 mM of GSH for 16 h. The solution was then dialyzed (membrane cutoff MW: 3,500 Dalton) in deionized water at 4° C. for 24 h. Then the sample was concentrated to 0.5 mL using Amicon centrifugal filter devices (Millipore, USA). Numbers of free sulfhydryl groups of RED-NP were determined by Ellman's method. Briefly, 250 μL of sample and 50 μL of Ellman's reagent (Thermo Scientific, USA) were added to 2.5 mL of reaction buffer (0.1 M sodium phosphate, pH 8.0, 1 mM EDTA). After 15 min of incubation at room temperature, the OD412 was measured. To generate a standard curve of free sulfhydryl groups, OD412 of serial dilutions of cysteine hydrochloride monohydrate was measured. The serial OD412 values were plotted against concentrations of cysteine hydrochloride monohydrate to generate a standard curve. Concentrations of free sulfhydryl groups in the RED-NP samples were determined from the standard curve and used to calculate numbers of free sulfhydryl groups per iTEP-vaccine fusion molecules.

Row | Molecule | temperature of sharp increase of turbidity (formation of aggregates) [1] [°C] | Tt (cooling) ([1]; 25 μM in H2O) [°C] | Tt (heating) ([1]; 25 μM in H2O) [°C] | free sulfhydryl groups, on average ([2]; after the treatment of 1 mM of GSH) | free sulfhydryl groups, on average ([2]; before GSH treatment)
1 | G(GAGVPG)70G(GVLPGVG)28G(ESIINFEKLT)2GG (protein) GGAGVPGGAGVPGGAGVPGGAGVPGGAGVPGGAGVPGGAGVPGGAGVPGGAGVPGGAGVPGGAGVPGGAGVPGGAGVPGGAGVPGGAGVPGGAGVPGGAGVPGGAGVPGGAGVPGGAGVPGGAGVPGGAGVPGGAGVPGGAGVPGGAGVPGGAGVPGGAGVPGGAGVPGGAGVPGGAGVPGGAGVPGGAGVPGGAGVPGGAGVPGGAGVPGGAGVPGGAGVPGGAGVPGGAGVPGGAGVPGGAGVPGGAGVPGGAGVPGGAGVPGGAGVPGGAGVPGGAGVPGGAGVPGGAGVPGGAGVPGGAGVPGGAGVPGGAGVPGGAGVPGGAGVPGGAGVPGGAGVPGGAGVPGGAGVPGGAGVPGGAGVPGGAGVPGGAGVPGGAGVPGGAGVPGGAGVPGGAGVPGGAGVPGGAGVPGGAGVPGGESIINFEKLTESIINFEKLTGG | 70 | 73.70 ± 0.23 | 75.40 ± 0.14 | – | –
2 | RED-NP: reductive-environment dependable NP, disulfide stabilized fusion iTEPB70-iTEPA28-(G8C)4-pOVA (SEQ ID NO: 61) (protein) GGAGVPGGAGVPGGAGVPGGAGVPGGAGVPGGAGVPGGAGVPGGAGVPGGAGVPGGAGVPGGAGVPGGAGVPGGAGVPGGAGVPGGAGVPGGAGVPGGAGVPGGAGVPGGAGVPGGAGVPGGAGVPGGAGVPGGAGVPGGAGVPGGAGVPGGAGVPGGAGVPGGAGVPGGAGVPGGAGVPGGAGVPGGAGVPGGAGVPGGAGVPGGAGVPGGAGVPGGAGVPGGAGVPGGAGVPGGAGVPGGAGVPGGAGVPGGAGVPGGAGVPGGAGVPGGAGVPGGAGVPGGAGVPGGAGVPGGAGVPGGAGVPGGAGVPGGAGVPGGAGVPGGAGVPGGAGVPGGAGVPGGAGVPGGAGVPGGAGVPGGAGVPGGAGVPGGAGVPGGAGVPGGAGVPGGAGVPGGAGVPGGAGVPGGAGVPGGAGVPGGGVLPGVGGVLPGVGGVLPGVGGVLPGVGGVLPGVGGVLPGVGGVLPGVGGVLPGVGGVLPGVGGVLPGVGGVLPGVGGVLPGVGGVLPGVGGVLPGVGGVLPGVGGVLPGVGGVLPGVGGVLPGVGGVLPGVGGVLPGVGGVLPGVGGVLPGVGGVLPGVGGVLPGVGGVLPGVGGVLPGVGGVLPGVGGVLPGVGGCGCGCGCGESIINFEKLTESIINFEKLTGG | – | – | – | two | zero
